The target of one experiment is PARP14 (human, UniProt Q460N5 1-1801, limits assumed). The experiment can be described thus: IP/MS, LZTR1 R810W-FLAG, U87. In outline:
(§1)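 Read-out: spectral counts from LC-MS/MS (Orbitrap Fusion) after MaxQuant identification. Variable modifications were Met oxidation, protein N-terminal acetylation and N/Q deamidation.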

In another experiment the target is T1, SBNO2 (human, UniProt Q9Y2G9 1-1366, limits assumed).
T1 sequence (looked up): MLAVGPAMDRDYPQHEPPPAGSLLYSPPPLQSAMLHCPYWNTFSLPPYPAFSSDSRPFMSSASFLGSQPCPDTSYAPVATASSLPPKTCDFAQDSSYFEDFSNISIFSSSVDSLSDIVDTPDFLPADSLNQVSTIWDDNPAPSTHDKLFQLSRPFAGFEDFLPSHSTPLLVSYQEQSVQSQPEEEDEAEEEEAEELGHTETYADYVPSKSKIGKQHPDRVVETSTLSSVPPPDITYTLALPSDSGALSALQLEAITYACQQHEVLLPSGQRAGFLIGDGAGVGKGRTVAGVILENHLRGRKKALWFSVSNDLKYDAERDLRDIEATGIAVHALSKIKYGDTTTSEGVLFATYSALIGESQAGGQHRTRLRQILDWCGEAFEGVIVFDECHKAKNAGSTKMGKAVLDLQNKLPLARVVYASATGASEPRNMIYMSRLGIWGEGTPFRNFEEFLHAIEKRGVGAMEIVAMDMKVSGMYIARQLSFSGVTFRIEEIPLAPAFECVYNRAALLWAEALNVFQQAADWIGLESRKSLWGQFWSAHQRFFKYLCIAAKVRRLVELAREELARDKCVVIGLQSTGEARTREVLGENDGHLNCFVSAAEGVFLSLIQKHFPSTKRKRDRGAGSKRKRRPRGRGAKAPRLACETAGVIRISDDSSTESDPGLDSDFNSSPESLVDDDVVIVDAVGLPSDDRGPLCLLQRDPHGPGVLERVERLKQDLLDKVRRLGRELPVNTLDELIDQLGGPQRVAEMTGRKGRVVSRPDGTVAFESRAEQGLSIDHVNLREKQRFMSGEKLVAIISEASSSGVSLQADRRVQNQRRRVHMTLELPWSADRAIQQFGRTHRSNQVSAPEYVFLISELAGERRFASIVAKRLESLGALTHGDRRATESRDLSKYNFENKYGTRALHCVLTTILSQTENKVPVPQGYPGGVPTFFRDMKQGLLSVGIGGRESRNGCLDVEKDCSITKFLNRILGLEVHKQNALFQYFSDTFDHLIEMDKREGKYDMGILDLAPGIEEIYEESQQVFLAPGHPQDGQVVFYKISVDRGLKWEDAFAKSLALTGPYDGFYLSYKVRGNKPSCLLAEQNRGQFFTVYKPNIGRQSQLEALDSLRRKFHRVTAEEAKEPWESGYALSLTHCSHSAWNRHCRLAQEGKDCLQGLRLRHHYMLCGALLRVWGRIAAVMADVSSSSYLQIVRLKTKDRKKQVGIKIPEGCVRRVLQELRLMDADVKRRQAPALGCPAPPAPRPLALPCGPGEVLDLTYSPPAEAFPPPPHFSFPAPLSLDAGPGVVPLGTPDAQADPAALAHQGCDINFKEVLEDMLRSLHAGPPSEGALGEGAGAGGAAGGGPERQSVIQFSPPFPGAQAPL
The experiment in a line: IP/MS, LZTR1 R810W-FLAG, U87. In outline:
as §1

Results on one molecule are retold here after US20250262210A1 (TRUSTEES OF COLUMBIA UNIVERSITY IN THE CITY OF NEW YORK, published 2025).

Sequence of PARP14 (Q460N5 whole entry, the tested form may be a part): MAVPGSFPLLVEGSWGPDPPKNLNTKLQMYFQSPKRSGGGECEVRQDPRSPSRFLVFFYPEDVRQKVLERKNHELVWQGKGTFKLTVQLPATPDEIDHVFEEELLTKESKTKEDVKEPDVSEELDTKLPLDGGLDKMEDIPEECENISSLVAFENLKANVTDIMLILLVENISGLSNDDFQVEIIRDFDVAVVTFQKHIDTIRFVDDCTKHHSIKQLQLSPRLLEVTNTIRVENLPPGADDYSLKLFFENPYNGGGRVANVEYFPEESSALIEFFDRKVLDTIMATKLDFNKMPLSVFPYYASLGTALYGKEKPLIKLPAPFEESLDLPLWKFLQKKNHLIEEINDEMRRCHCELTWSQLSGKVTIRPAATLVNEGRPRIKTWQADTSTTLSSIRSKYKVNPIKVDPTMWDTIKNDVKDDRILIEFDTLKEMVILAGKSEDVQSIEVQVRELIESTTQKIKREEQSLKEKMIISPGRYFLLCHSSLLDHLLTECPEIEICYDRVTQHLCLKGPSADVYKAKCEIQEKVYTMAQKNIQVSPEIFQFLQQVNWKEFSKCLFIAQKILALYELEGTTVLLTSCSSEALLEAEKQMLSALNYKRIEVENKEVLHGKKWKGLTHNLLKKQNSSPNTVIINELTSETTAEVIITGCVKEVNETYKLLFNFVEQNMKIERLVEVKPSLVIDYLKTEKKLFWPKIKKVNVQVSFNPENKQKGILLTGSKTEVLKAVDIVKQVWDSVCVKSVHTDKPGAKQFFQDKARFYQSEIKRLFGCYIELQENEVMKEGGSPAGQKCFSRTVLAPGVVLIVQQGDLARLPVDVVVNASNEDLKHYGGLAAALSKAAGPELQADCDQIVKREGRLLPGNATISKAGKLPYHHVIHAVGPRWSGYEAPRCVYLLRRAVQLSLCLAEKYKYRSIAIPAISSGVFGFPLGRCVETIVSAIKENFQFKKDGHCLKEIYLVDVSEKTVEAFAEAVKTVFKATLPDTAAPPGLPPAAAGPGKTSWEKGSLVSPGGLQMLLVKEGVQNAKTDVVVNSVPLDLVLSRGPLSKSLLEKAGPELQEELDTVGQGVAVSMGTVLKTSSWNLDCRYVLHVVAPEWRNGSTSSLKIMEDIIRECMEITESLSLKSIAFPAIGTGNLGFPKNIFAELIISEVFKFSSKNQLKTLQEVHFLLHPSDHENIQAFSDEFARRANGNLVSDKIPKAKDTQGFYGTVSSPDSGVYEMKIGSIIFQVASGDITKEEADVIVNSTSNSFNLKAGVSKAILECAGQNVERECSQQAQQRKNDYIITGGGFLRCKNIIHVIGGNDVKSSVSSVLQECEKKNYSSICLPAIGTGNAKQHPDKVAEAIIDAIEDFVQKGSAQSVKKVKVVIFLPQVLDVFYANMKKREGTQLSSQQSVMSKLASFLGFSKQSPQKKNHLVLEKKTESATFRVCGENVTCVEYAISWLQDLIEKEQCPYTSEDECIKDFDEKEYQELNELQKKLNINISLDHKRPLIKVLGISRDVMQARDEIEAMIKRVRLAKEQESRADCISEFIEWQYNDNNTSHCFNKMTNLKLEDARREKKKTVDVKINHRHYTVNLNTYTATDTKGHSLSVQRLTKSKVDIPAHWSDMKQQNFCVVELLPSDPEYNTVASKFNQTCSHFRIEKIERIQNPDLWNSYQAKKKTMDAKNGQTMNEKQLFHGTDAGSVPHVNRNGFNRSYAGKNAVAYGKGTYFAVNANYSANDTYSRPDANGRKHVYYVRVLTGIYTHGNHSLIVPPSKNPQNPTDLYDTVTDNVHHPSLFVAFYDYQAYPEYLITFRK

B1: LZTR1 R810W-FLAG (other, human, UniProt Q8N653 1-840, looked up)
chain: MAGPGSTGGQIGAAALAGGARSKVAPSVDFDHSCSDSVEYLTLNFGPFETVHRWRRLPPCDEFVGARRSKHTVVAYKDAIYVFGGDNGKTMLNDLLRFDVKDCSWCRAFTTGTPPAPRYHHSAVVYGSSMFVFGGYTGDIYSNSNLKNKNDLFEYKFATGQWTEWKIEGRLPVARSAHGATVYSDKLWIFAGYDGNARLNDMWTIGLQDRELTCWEEVAQSGEIPPSCCNFPVAVCRDKMFVFSGQSGAKITNNLFQFEFKDKTWTRIPTEHLLRGSPPPPQRRYGHTMVAFDRHLYVFGGAADNTLPNELHCYDVDFQTWEVVQPSSDSEVGGAEVPERACASEEVPTLTYEERVGFKKSRDVFGLDFGTTSAKQPTQPASELPSGRLFHAAAVISDAMYIFGGTVDNNIRSGEMYRFQFSCYPKCTLHEDYGRLWESRQFCDVEFVLGEKEECVQGHVAIVTARSRWLRRKITQARERLAQKLEQEAAPVPREAPGVAAGGARPPLLHVAIREAEARPFEVLMQFLYTDKIKYPRKGHVEDVLLIMDVYKLALSFQLCRLEQLCRQYIEASVDLQNVLVVCESAARLQLSQLKEHCLNFVVKESHFNQVIMMKEFERLSSPLIVEIVRRKQQPPPRTPLDQPVDIGTSLIQDMKAYLEGAGAEFCDITLLLDGHPRPAHKAILAARSSYFEAMFRSFMPEDGQVNISIGEMVPSRQAFESMLRYIYYGEVNMPPEDSLYLFAAPYYYGFYNNRLQAYCKQNLEMNVTVQNVLQILEAADKTQALDMKRHCLHIIVHQFTKVSKLPTLWSLSQQLLLDIIDSLASHISDKQCAELGADI
notes: Stably expressed in U87 cells by lentivirus; also called LZTR1-FLAG-R810W; LZTR1 RW; not shown: FLAG tag
For B1, the binding result in the experiment with PARP14 and with SBNO2 was “binds” each time.
